Residue numbers refer to the chain shown, from its start. In names and notes the source's numbering stands.
Molecular target: T1, CheA3P1, the isolated P1 (Hpt, histidine-containing phosphotransfer) domain of CheA3 (residues 1-135), unphosphorylated
T1 chain: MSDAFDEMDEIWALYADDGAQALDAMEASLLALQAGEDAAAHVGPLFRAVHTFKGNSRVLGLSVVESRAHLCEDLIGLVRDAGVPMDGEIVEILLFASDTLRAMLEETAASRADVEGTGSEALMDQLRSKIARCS
Experiment: SPR
Conditions: chain shown with the change; CheA3P1 injected over surfaces coupled with the respective RR; CheA3P1 concentration ranging from 120 nM to 2 mM; parent: ND

B1: CheY4 (wild type) with an engineered C-terminal biotinylation tag, for SPR surfaces P12A; S13M; C16L; M17Y (protein)
chain: MTKTVLAVDDSAMIRLYVALTLREAGYEVIEASDGQEALDLALSRPVDAILTDQNMPRLDGLGFIRAFRSRPEGKGTPIVFLSTESADTLKAEARAAGALGWMVKPFTQAQLLAVMKKLLG
B1 was tested. Which Kd did it give?
Its Kd is 365 µM.

B2: CheY4 (wild type) with an engineered C-terminal biotinylation tag, for SPR surfaces P12A; S13M (protein)
chain: B1 chain with L16C, Y17M
Which Kd does the source give for B2 here?
The Kd was 678 µM.

Reference: publication PMC2817712
